# Results from the supplement of paper PMC9112550, “Optimization of the antimicrobial peptide Bac7 by deep mutational scanning” (BMC Biology, 2022).
# System: Escherichia coli TOP10
# Assay: shrunken log2 fold change of peptide-encoding DNA abundance (4.5 h post-induction vs induction); higher = less antimicrobial activity (less host growth inhibition)
# Conditions: time post-induction: 4.5 h; library: site-saturation at positions 5, 18, 19, 20
# 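Note: peptides expressed intracellularly from a pBAD plasmid library in pooled LB shake-flask culture, induced with 0.3% L-arabinose, DNA abundance read by NGS, three biological replicates, DESeq2 with apeglm shrinkage.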
row,Sequence,shrunken log2 fold change
1,RRIRCRPPRLPRPRPRPLDMPRP,-0.549
2,RRIRARPPRLPRPRPRPSSAPRP,1.29
3,RRIRARPPRLPRPRPRPWHYPRP,-0.253
4,RRIRNRPPRLPRPRPRPDYFPRP,-0.209
5,RRIRQRPPRLPRPRPRPNAFPRP,0.227
6,RRIRPRPPRLPRPRPRPAPWPRP,0.436
7,RRIRDRPPRLPRPRPRPSQYPRP,-0.697
8,RRIRCRPPRLPRPRPRPLAHPRP,-0.0666
9,RRIRYRPPRLPRPRPRPSFQPRP,-1.13
10,RRIRKRPPRLPRPRPRPADMPRP,0.399
11,RRIRMRPPRLPRPRPRPSGHPRP,0.0431
12,RRIRDRPPRLPRPRPRPYMFPRP,-0.244
13,RRIRSRPPRLPRPRPRPIWHPRP,-0.271
14,RRIRWRPPRLPRPRPRPFPTPRP,-0.12
15,RRIRWRPPRLPRPRPRPPNNPRP,-0.0673
16,RRIRDRPPRLPRPRPRPTWYPRP,-0.238
17,RRIRLRPPRLPRPRPRPMPFPRP,-0.0289
18,RRIRVRPPRLPRPRPRPRSTPRP,0.0765
19,RRIRIRPPRLPRPRPRPWGVPRP,-0.888
20,RRIRTRPPRLPRPRPRPGNDPRP,-0.219
21,RRIRQRPPRLPRPRPRPKKFPRP,-0.097
22,RRIRPRPPRLPRPRPRPMGNPRP,-0.0876

row,Sequence,shrunken log2 fold change
1,RRIRRRPPRLPRPRPRPHCMPRP,-0.329
2,RRIRLRPPRLPRPRPRPNCVPRP,0.138
3,RRIRLRPPRLPRPRPRPWPCPRP,0.209
4,RRIRSRPPRLPRPRPRPVQQPRP,-0.00468
5,RRIRPRPPRLPRPRPRPRSKPRP,-0.149
6,RRIRSRPPRLPRPRPRPDRYPRP,-0.172
7,RRIRCRPPRLPRPRPRPNSCPRP,-0.394
8,RRIRWRPPRLPRPRPRPRPMPRP,0.427
9,RRIRRRPPRLPRPRPRPPQKPRP,1.31
10,RRIRMRPPRLPRPRPRPFKVPRP,-0.111
11,RRIRQRPPRLPRPRPRPHPIPRP,-0.133
12,RRIRSRPPRLPRPRPRPLWYPRP,-0.327
13,RRIRTRPPRLPRPRPRPDRIPRP,0.00097
14,RRIRPRPPRLPRPRPRPHMTPRP,-0.47
15,RRIRVRPPRLPRPRPRPVTLPRP,-0.227
16,RRIRTRPPRLPRPRPRPSTEPRP,-0.456
17,RRIRVRPPRLPRPRPRPNWSPRP,-0.114
18,RRIRDRPPRLPRPRPRPNQWPRP,0.151
19,RRIRARPPRLPRPRPRPIIAPRP,0.00311
20,RRIRERPPRLPRPRPRPCSQPRP,-0.0493
21,RRIRKRPPRLPRPRPRPRGNPRP,0.258
22,RRIRWRPPRLPRPRPRPEWTPRP,0.0673

row,Sequence,shrunken log2 fold change
1,RRIRQRPPRLPRPRPRPTFFPRP,-0.0813
2,RRIRHRPPRLPRPRPRPANDPRP,-0.0802
3,RRIRERPPRLPRPRPRPQPEPRP,-0.0263
4,RRIRRRPPRLPRPRPRPRAAPRP,0.833
5,RRIRTRPPRLPRPRPRPQFFPRP,-0.11
6,RRIRRRPPRLPRPRPRPEFSPRP,0.0744
7,RRIRNRPPRLPRPRPRPTNHPRP,-0.527
8,RRIRFRPPRLPRPRPRPFASPRP,-0.705
9,RRIRERPPRLPRPRPRPPKFPRP,-0.0978
10,RRIRHRPPRLPRPRPRPWMNPRP,-0.0538
11,RRIRHRPPRLPRPRPRPLCGPRP,-0.302
12,RRIRGRPPRLPRPRPRPTGRPRP,0.907
13,RRIRARPPRLPRPRPRPNKEPRP,-0.211
14,RRIRHRPPRLPRPRPRPTTGPRP,-0.117
15,RRIRFRPPRLPRPRPRPNAVPRP,-0.0327
16,RRIRLRPPRLPRPRPRPPPYPRP,0.388
17,RRIRSRPPRLPRPRPRPANDPRP,0.0254
18,RRIRCRPPRLPRPRPRPSRLPRP,0.0589
19,RRIRFRPPRLPRPRPRPFQDPRP,0.0171
20,RRIRARPPRLPRPRPRPYMEPRP,-0.348
21,RRIRIRPPRLPRPRPRPNHDPRP,-0.832
22,RRIRIRPPRLPRPRPRPTWQPRP,0.0597

row,Sequence,shrunken log2 fold change
1,RRIRMRPPRLPRPRPRPALAPRP,1.08
2,RRIRPRPPRLPRPRPRPVSVPRP,0.0528
3,RRIRNRPPRLPRPRPRPLKRPRP,-0.0368
4,RRIRARPPRLPRPRPRPPLLPRP,0.543
5,RRIRFRPPRLPRPRPRPVHHPRP,-0.00203
6,RRIRNRPPRLPRPRPRPCQSPRP,-0.212
7,RRIRHRPPRLPRPRPRPLGWPRP,0.708
8,RRIRARPPRLPRPRPRPACKPRP,0.558
9,RRIRYRPPRLPRPRPRPLANPRP,-0.371
10,RRIRKRPPRLPRPRPRPCPWPRP,0.332
11,RRIRGRPPRLPRPRPRPDVFPRP,0.438
12,RRIRMRPPRLPRPRPRPIQKPRP,0.0394
13,RRIRMRPPRLPRPRPRPDMPPRP,-0.0178
14,RRIRGRPPRLPRPRPRPLSIPRP,0.363
15,RRIRHRPPRLPRPRPRPNIEPRP,-0.172
16,RRIRMRPPRLPRPRPRPMCLPRP,0.292
17,RRIRMRPPRLPRPRPRPEECPRP,0.0665
18,RRIRNRPPRLPRPRPRPNVHPRP,-0.309
19,RRIRIRPPRLPRPRPRPGHQPRP,-0.00431
20,RRIRKRPPRLPRPRPRPHSDPRP,0.0765
21,RRIRARPPRLPRPRPRPGDTPRP,0.264
22,RRIRHRPPRLPRPRPRPLEQPRP,-0.0138

row,Sequence,shrunken log2 fold change
1,RRIRIRPPRLPRPRPRPCGPPRP,-0.138
2,RRIRIRPPRLPRPRPRPEWFPRP,0.00757
3,RRIRKRPPRLPRPRPRPMYYPRP,-0.148
4,RRIRPRPPRLPRPRPRPYLGPRP,3.16
5,RRIRARPPRLPRPRPRPEWQPRP,0.105
6,RRIRPRPPRLPRPRPRPCTDPRP,-0.0332
7,RRIRQRPPRLPRPRPRPMHRPRP,-0.0558
8,RRIRQRPPRLPRPRPRPIQFPRP,-0.282
9,RRIRTRPPRLPRPRPRPKRVPRP,-0.0636
10,RRIRERPPRLPRPRPRPESIPRP,0.089
11,RRIRPRPPRLPRPRPRPVYPPRP,3.41
12,RRIRPRPPRLPRPRPRPACRPRP,0.183
13,RRIRIRPPRLPRPRPRPEYAPRP,-0.0426
14,RRIRPRPPRLPRPRPRPTRGPRP,0.543
15,RRIRRRPPRLPRPRPRPICQPRP,0.133
16,RRIRTRPPRLPRPRPRPCKDPRP,0.027
17,RRIRIRPPRLPRPRPRPTFCPRP,-0.02
18,RRIRQRPPRLPRPRPRPRYGPRP,-0.407
19,RRIRPRPPRLPRPRPRPLEIPRP,-0.199
20,RRIRFRPPRLPRPRPRPLIQPRP,-0.289
21,RRIRDRPPRLPRPRPRPQWIPRP,-0.222
